These results are taken from patent US20200199244A1 (published 2020).

Changes are numbered by the printed parent chain. Where “and” joins values, the source holds several entries; their conditions need not be identical. Equal entries are not always repeated.

The chains are these.
B1: BMS3h-56-7 (other)
VH: EVQLLESGGGLVQPGGSLRLSCAASGFTFRDYEMWWVRQAPGKGLERVSAINPQGTRTYYADSVKGRFTISRDNSKNTLYLQMNSLRAEDTSVYHCAKPPFIFGDWGPGTLVTVSS
notes: dAb, single VH
B2: BMS3h-56-8 (other)
VH: B1 VH with L18R, S92A, H95Y, P99L, I102T, G104E, P108Q
notes: dAb, single VH
B3: BMS3h-217-1 (other)
VL: NIQMTQSPSSLSASVGDRVTITCRASHFIGTLLTWYQHKPGKAPKLLITYGSLLQSGVPSRFSGSGSGTDFTLTISSLQPEDFATYYCGQGVLWPATFGQGTKVEIKR
notes: dAb, single VK
B4: BMS3h-217-17 (other)
VL: B3 VL with N1D, M4I, T5I, T34S, H38Q, A96P
notes: dAb, single VK
B5: BMS3h-217-23 (other)
VL: B3 VL with N1D, T31S, T34S, H38V, K103T
notes: dAb, single VK
B6: BMS3h-217-15 (other)
VL: B3 VL with N1D, S12Y, A25V, T34S, H38Q, T74S, A96P, R108Q
notes: dAb, single VK
B7: BMS3h-217-3 (other)
VL: B3 VL with N1D, S12T, T34S, H38Q, I48V, S77N, A96P, I106N, K107I
notes: dAb, single VK
B8: BMS3h-217-9 (other)
VL: B3 VL with N1D, T34S, L53M
notes: dAb, single VK
B9: BMS3h-217-16 (other)
VL: B3 VL with N1D, T34S, H38Q, G41R, A96P
notes: dAb, single VK
B10: BMS3h-217-7 (other)
VL: B3 VL with N1D, T31S, T34S
notes: dAb, single VK
B11: BMS3h-217-8 (other)
VL: B3 VL with N1D, T34S
notes: dAb, single VK
B12: BMS3h-217-2 (other)
VL: B3 VL with N1D, T34S, H38Q, G41R, Q79H, A96P
notes: dAb, single VK
B13: BMS3h-193-2506 (other)
VL: DIQMTQSPSSLSASVGDRVTITCRASQQIGRRLNWYQQKPGKAPRLLIYLATRLQSGVPSRFSGSGSGTDFTLTISSLQPEDFATYYCHQYESPPLTFGQGTKVEIKR
notes: domain antibody (dAb): single human V kappa domain
B14: BMS3h-193-2516 (other)
VL: B13 VL with Q28T, G30E, A51S, T52S, R53K
notes: as for B13
B15: BMS3h-193-2502 (other)
VL: B13 VL with Q27F, Q28P, G30D
notes: as for B13
B16: BMS3h-193-2503 (other)
VL: B13 VL with Q27S, Q28T
notes: as for B13
B17: BMS3h-193-2510 (other)
VL: B13 VL with Q28S
notes: as for B13
B18: BMS3h-193-2512 (other)
VL: B13 VL with Q27E, Q28V
notes: as for B13
B19: BMS3h-193-2505 (other)
VL: B13 VL with Q27E, Q28R
notes: as for B13
B20: BMS3h-193-2515 (other)
VL: B13 VL with Q27L, Q28N
notes: as for B13
B21: BMS3h-193-2507 (other)
VL: B13 VL with Q28P, G30A
notes: as for B13
B22: BMS3h-193-2504 (other)
VL: B13 VL with Q27S
notes: as for B13
B23: BMS3h-193-2514 (other)
VL: B13 VL with Q27T, Q28S, G30A
notes: as for B13
B24: BMS3h-193-2511 (other)
VL: B13 VL with Q28N, R31T
notes: as for B13
B25: BMS3h-193-2513 (other)
VL: B13 VL with Q27E, Q28A
notes: as for B13
B26: BMS3h-193-2501 (other)
VL: B13 VL with Q28T, G30E, Y91F, S93H
notes: as for B13
B27: BMS3h-56-243 (other)
VH: B1 VH with Q54W, T56G, R57F, S92A, H95Y, P99L, I102T, G104E, P108Q
notes: domain antibody (dAb): single human VH domain
B28: BMS3h-56-253 (other)
VH: B1 VH with Q54A, T56G, R57Y, S92A, P99L, I102T, G104E, P108Q
notes: as for B27
B29: BMS3h-56-248 (other)
VH: B1 VH with Q54Y, T56N, R57L, S92A, H95Y, P99L, I102T, G104D, P108Q
notes: as for B27
B30: BMS3h-56-244 (other)
VH: B1 VH with Q54W, T56G, R57L, S92A, H95Y, P99L, I102T, G104D, P108Q
notes: as for B27
B31: BMS3h-38-238 (other)
VH: EVQLLASGGGLVQPGGSLRLSCAASGFTFEEEEMIWVRQAPGKGLEWVSAISRSGYSTYYADSVKGRFTISRDNSKNTLYLQMNSLRAEDTAVYYCGKEPFRYDYWGQGTLVTVSS
notes: as for B27
B32: BMS3h-38-224 (other)
VH: B31 VH with R53G, Y56G, R102P
notes: as for B27
B33: BMS3h-38-204 (other)
VH: B31 VH with E30P, E31Q, R53G, Y56G
notes: as for B27
B34: BMS3h-38-225 (other)
VH: B31 VH with R53G, Y56G, S57G
notes: as for B27
B35: BMS3h-38-217 (other)
VH: B31 VH with S54R
notes: as for B27
B36: BMS3h-38-237 (other)
VH: B31 VH with S54G, Y56W
notes: as for B27
B37: BMS3h-38-223 (other)
VH: B31 VH with R53G, Y56G, R102M
notes: as for B27
B38: BMS3h-38-228 (other)
VH: B31 VH with S54N, Y56F
notes: as for B27
B39: BMS3h-38-203 (other)
VH: B31 VH with E32K, R53G, Y56G, R102F
notes: as for B27
B40: BMS3h-38-209 (other)
VH: B31 VH with S54L, Y56W
notes: as for B27
B41: BMS3h-38-215 (other)
VH: B31 VH with R53G, S54L, Y56W
notes: as for B27
B42: BMS3h-38-205 (other)
VH: B31 VH with E30F, E31A, E32A, R53G, Y56G
notes: as for B27
B43: BMS3h-38-202 (other)
VH: B31 VH with R53G, Y56G, R102Y, Y103F
notes: as for B27
B44: BMS3h-38-231 (other)
VH: B31 VH with T28P, S54Q, Y56W
notes: as for B27
B45: BMS3h-38-201 (other)
VH: B31 VH with R53G, Y56G, R102Y
notes: as for B27
B46: BMS3h-38-235 (other)
VH: B31 VH with S54N
notes: as for B27
B47: BMS3h-38-218 (other)
VH: B31 VH with S54H, Y56W
notes: as for B27
B48: BMS3h-38-226 (other)
VH: B31 VH with R53G, Y56G, F101L, R102Y
notes: as for B27
B49: BMS3h-37-205 (other)
VH: EVQLLESGGGLVQPGGSLRLSCAASGFTFEWYEMQWVRRAPGKGLEWVSAISGDGYRTYYADSVKGRFTISRDNSKNTLYLQMNSLRAEDTAVYYCAKELEYFDYWGRGTLVTVSS
notes: as for B27
B50: BMS3h-37-206 (other)
VH: B49 VH with E99G
notes: as for B27
B51: BMS3h-37-213 (other)
VH: B49 VH with E101L, Y102F, W106R
notes: as for B27
B52: BMS3h-37-212 (other)
VH: B49 VH with Q13R, Y102F
notes: as for B27
B53: BMS3h-37-207 (other)
VH: B49 VH with E101A, Y102F
notes: as for B27

The target in the first test is T1, human CD40 (BMS, CY24FEB06-01) (human, UniProt P25942 21-193).
T1 construct: Soluble reagent of the bead and ELISA RBA; It is detected with an anti-human IgG (Fc) mAb, so it may be a CD40-Ig fusion
In words: ELISA RBA, competition with IZ-CD40L.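 Also: Neutravidin-coated 384-well plate, dAb–human CD40 complex bound for 2 h at room temperature, absorbance read at 450 nm after HCl stop.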 Background: In an ELISA, binding on a coated surface is turned into a signal by an enzyme label.
T1 sequence (P25942 21-193 limits assumed): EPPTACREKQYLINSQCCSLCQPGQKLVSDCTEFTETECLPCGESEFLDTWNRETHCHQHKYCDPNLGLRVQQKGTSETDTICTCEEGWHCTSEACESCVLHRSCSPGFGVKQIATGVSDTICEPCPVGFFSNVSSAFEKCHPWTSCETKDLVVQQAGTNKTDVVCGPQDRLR
Description: (§1) Clear walled High Bind, 384-well plates (Corning, UK) were coated with 25 μl of 1 μg/ml Neutravidin in 0.2 M carbonate-bicarbonate buffer, pH 9.4 overnight at 4° C. The following day, assay plates were washed with 0.1% (v/v) Tween PBS buffer, blocked with 1% (w/v) BSA in PBS for 1 hour at room temperature and washed again. […] Following washing of the assay plate, the dAb:human CD40 complex was incubated in the assay plate at room temperature for 2 hours with gentle agitation. […] Absorbance signal was measured using a SpectraMax® M5e plate reader (Molecular Devices) at 450 nm following neutralization with 1M HCl solution.
Consider B1, for which the EC50 (commonly the concentration giving half of the maximal effect) came out at 5.5 nM. The same measure, in the same setting: the same measure for B2: 6.2 nM; for B3: 23 nM; for B4: 60 nM. B5 displayed an EC50 of 16 nM.

B6 displayed an EC50 of 21 nM. This EC50 and that of the molecule before are within 1.5-fold of each other. The molecule B7 registered a 50% effective concentration (EC50) of 32 nM. This EC50 is about 1.5-fold higher than that of the molecule before. The same measure, in the same setting: the same measure for B8: 53 nM; for B9: 9 nM. Molecule B10 showed an EC50 of 39 nM. Regarding B11, the EC50 was 6 nM. Consider B12, for which the EC50 was determined as 78 nM.

Another test addresses T2, human CD40 (BMS, CY24FEB06-01) (human, UniProt P25942 21-193).
T2 construct: Soluble human CD40 reagent of the ELISA RBA
Put plainly: ELISA RBA, competition with IZ-CD40L for soluble human CD40.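 Also: Neutravidin-coated 384-well plates, dAb–human CD40 complex incubated 2 h at room temperature, read-out as absorbance at 450 nm.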
T2 sequence (P25942 21-193 limits assumed): as above
Description: as §1
B13 registered an EC50 of 180 nM. Still for that read-out and setting: the same measure for B14: 100 nM; for B15: 170 nM.

In the case of B16, the EC50 is 3000 nM. B17 came in with an EC50 of 170 nM. Regarding B18, the EC50 came to 600 nM. Still for that read-out and setting: the same measure for B19: 500 nM.

For the molecule B20, the response was half-maximal at 100 nM (EC50). Still for that read-out and setting: in the case of B21 it was 160 nM. Same read-out and setting: in the case of B22 it was 140 nM. On to B23, for which the midpoint of the response, the EC50, lay at 525 nM. On to B24, for which the midpoint of the response, the EC50, lay at 270 nM. Molecule B25 registered an EC50 of 130 nM. B26 yielded an EC50 of 114 nM. Still for that read-out and setting: in the case of B27 it was 9.9 nM; in that of B28, 1.3 nM; in that of B29, 0.7 nM.

Regarding B30, the EC50 was 6 nM. The same measure, in the same setting: the same measure for B31: 5.1 nM. Molecule B32 had an EC50 of 6.3 nM. In turn, B33 displayed an EC50 of 4.8 nM. Take B34: the midpoint of the response, the EC50, lay at 8.8 nM.

Take B35: the EC50 was 1.8 nM and 2.2 nM. As to B36, the midpoint of the response, the EC50, lay at 2 nM.

B37: the EC50 is 5.7 nM. Molecule B38 registered an EC50 of 4 nM. The EC50 values of the last two molecules are within 1.5-fold of each other. For B39, the midpoint of the response, the EC50, lay at 5.5 nM. As for B40, the EC50 stood at 10.2 nM. This EC50 lies about 1.9-fold higher than the previous one. For the molecule B41, the EC50 is 2.3 nM and 3.6 nM. Consider B42, for which the EC50 is 4.5 nM and 11.1 nM. B43 gave an EC50 of 4.8 nM. Consider B44, for which the EC50 was 4.4 nM.

Molecule B45 gave an EC50 of 3.4 nM. Turning to B46, the EC50 was found to be 1.5 nM. For B47, a half-maximal effect (EC50) was put at 3 nM. For the molecule B48, the concentration giving a half-maximal response (EC50) stood at 18.1 nM. For B49, the EC50 is 3.1 nM and 4.4 nM.

Take B50: the EC50 is 3.2 nM and 8.9 nM. The molecule B51 returned an EC50 of 16 nM. B52 registered an EC50 of 24 nM. This EC50 is about 1.5-fold higher than that of the molecule before. Take B53: the EC50 is 2.5 nM and 6.6 nM.
